Substrate: O=C(/C=C/c1ccc(O)c(O)c1)O[C@@H]1C[C@](O)(C(=O)O)C[C@@H](O)[C@H]1O
Test: purified protein
Conditions: tri-buffer (0.1 M acetic acid, 0.1 M Tris, 20 mM MES) pH 6, 30°C, 15 min, hydrolysis

B1: CiCQE3 (Cichorium intybus) (protein)
chain: CYPSIISFGDSLADTGNVKEMASKSNVHAPHFLFPPYGETFFNKPTGRCSNGRLIIDFVAESLGLPLIPPSLGSKTNVHVTGLGQGVNYAVAGATALDSSFHEERGVEIWTNASLGVQLGWFKDSLSSICSSVADCRQLIGQSLVLMGEIGGNDYNHALVAGKSIDEVETYVPFVINTIVSAVNELIELGAETLVIPGNLPIGCSAAYLTIFYGSSEVQYDNSTGCIITLNKLAEYHNEFLQKKLHQIRELHPDVNIIYADYYNAAMQFFRSPNKYGFTNGALKACCGGGGPFNYNPSIDCADPASTSCAQPDTYVNWDGLHLTEAAYRVIFKSIFEGSYTTPRFNALCPTSMLQGVGGFSSSI
Km: 1.740 mM | kcat: 0.466 s⁻¹

From publication PMC12405362
